# Assay results taken from patent US20240270846A1 (published 2024).
# Molecular target: human CD137 expressed constitutively on the B cell strain HDLM-2 (human, UniProt Q07011 24-255)
# Test: cell-based or functional assay
# Chain of human CD137 expressed constitutively on the B cell strain HDLM-2 (Q07011 24-255): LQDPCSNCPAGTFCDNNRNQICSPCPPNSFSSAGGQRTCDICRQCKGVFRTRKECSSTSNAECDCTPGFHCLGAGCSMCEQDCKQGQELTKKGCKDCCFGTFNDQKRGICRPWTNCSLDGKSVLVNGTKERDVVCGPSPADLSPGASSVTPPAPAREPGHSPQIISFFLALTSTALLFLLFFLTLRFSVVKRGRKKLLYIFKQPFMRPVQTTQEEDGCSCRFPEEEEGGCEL
Binder,"Agonistic activity compared to B, antibody 6 µg/mL [%]","Agonistic activity compared to B, antibody 30 µg/mL [%]","Agonistic activity compared to Ctrl, antibody 6 µg/mL [%]","Agonistic activity compared to Ctrl, antibody 30 µg/mL [%]","hIL-6 (pg/mL), antibody 6 µg/mL [pg/mL]","hIL-6 (pg/mL), antibody 30 µg/mL [pg/mL]"
"GPC3 ERY22-dBBDu_183/L072 (bispecific antibody, human IgG1, kappa, L234A L235A, N297A) heavy 1: DIVMTQSPLSLPVTPGEPASISCRSSQSLVHSNRNTYLHWYQQKPGQAPRLLIYKVSNRFSGVPDRFSGSGSGTDFTLKISRVEAEDVGVYYCSQNTHVPPTFGQGTKLEIKSSASTKGPSVFPLAPSSKSTSGGTAALGCLVKDYFPEPVTVSWNSGALTSGVHTFPAVLQSSGLYSLSSVVTVPSSSLGTQTYICNVNHKPSNTKVDKKVEPKSCDKTHTCPPCPAPEAAGGPSVFLFPPKPKDTLMISRTPEVTCVVVDVSHEDPEVKFNWYVDGVEVHNAKTKPREEQYASTYRVVSVLTVLHQDWLNGKEYKCKVSNKALPAPIEKTISKAKGQPREPQVCTLPPSRDELTKNQVSLWCLVKGFYPSDIAVEWESNGQPENNYKTTPPVLDSDGSFFLYSKLTVDKSRWQQGNVFSCSVMHEALHNHYTQKSLSLSPHHHHHHHH light 1: QVQLVQSGAEVKKPGASVKVSCKASGYTFTDYEMHWIRQPPGQGLEWIGAIDPKTGDTAYSQKFKGRVTLTADKSTSTAYMELSSLTSEDTAVYYCTRFYSYTYWGQGTLVTVSSASVAAPSVFIFPPSDEQLKSGTASVVCLLNNFYPREAKVQWKVDNALQSGNSQESVTEQDSKDSTYSLSSTLTLSKADYEKHKVYACEVTHQGLSSPVTKSFNRGEC heavy 2: QVQLVESGGGLVQPGRSLRLSCAASGFTFSNAWMHWVRQAPGKGLEWVAQIKDKGNAYAAYYAPSVKGRFTISRDDSKNSIYLQMNSLKTEDTAVYYCHYVHYASASTVLPAFGVDAWGQGTTVTVSSASTKGPSVFPLAPSSKSTSGGTAALGCLVKDYFPEPVTVSWNSGALTSGVHTFPAVLQSSGLYSLSSVVTVPSSSLGTQTYICNVNHKPSNTKVDKKVEPKSCDKTHTCPPCPAPEAAGGPSVFLFPPKPKDTLMISRTPEVTCVVVDVSHEDPEVKFNWYVDGVEVHNAKTKPREEQYASTYRVVSVLTVLHQDWLNGKEYKCKVSNKALPAPIEKTISKAKGQPREPQVYTLPPSRCELTKNQVSLSCAVKGFYPSDIAVEWESNGQPENNYKTTPPVLDSDGSFFLVSKLTVDKSRWQQGNVFSCSVMHEALHNHYTQKSLSLSPDYKDDDDK light 2: DIVMTQSPLSLPVTPGEPASISCQASQELVHMNRNTYLHWYQQKPGQAPRLLIYKVSNRFPGVPDRFSGSGSGTDFTLKISRVEAEDVGVYYCAQGTSVPFTFGQGTKLEIKRTVAAPSVFIFPPSDEQLKSGTASVVCLLNNFYPREAKVQWKVDNALQSGNSQESVTEQDSKDSTYSLSSTLTLSKADYEKHKVYACEVTHQGLSSPVTKSFNRGEC",3.21,15.8,11.1,59.8,1130,1450
"GPC3 ERY22-dBBDu_167/L091 (bispecific antibody, human IgG1, kappa, L234A L235A, N297A) heavy 1: DIVMTQSPLSLPVTPGEPASISCRSSQSLVHSNRNTYLHWYQQKPGQAPRLLIYKVSNRFSGVPDRFSGSGSGTDFTLKISRVEAEDVGVYYCSQNTHVPPTFGQGTKLEIKSSASTKGPSVFPLAPSSKSTSGGTAALGCLVKDYFPEPVTVSWNSGALTSGVHTFPAVLQSSGLYSLSSVVTVPSSSLGTQTYICNVNHKPSNTKVDKKVEPKSCDKTHTCPPCPAPEAAGGPSVFLFPPKPKDTLMISRTPEVTCVVVDVSHEDPEVKFNWYVDGVEVHNAKTKPREEQYASTYRVVSVLTVLHQDWLNGKEYKCKVSNKALPAPIEKTISKAKGQPREPQVCTLPPSRDELTKNQVSLWCLVKGFYPSDIAVEWESNGQPENNYKTTPPVLDSDGSFFLYSKLTVDKSRWQQGNVFSCSVMHEALHNHYTQKSLSLSPHHHHHHHH light 1: QVQLVQSGAEVKKPGASVKVSCKASGYTFTDYEMHWIRQPPGQGLEWIGAIDPKTGDTAYSQKFKGRVTLTADKSTSTAYMELSSLTSEDTAVYYCTRFYSYTYWGQGTLVTVSSASVAAPSVFIFPPSDEQLKSGTASVVCLLNNFYPREAKVQWKVDNALQSGNSQESVTEQDSKDSTYSLSSTLTLSKADYEKHKVYACEVTHQGLSSPVTKSFNRGEC heavy 2: QVQLVESGGGLVQPGRSLRLSCAASGFTFSNAWMHWVRQAPGKGLEWVAQIKDKGNLYAAYYAPSVKGRFTISRDDSKNSIYLQMNSLKTEDTAVYYCHYVHYASAGGGLPGFGVDAWGQGTTVTVSSASTKGPSVFPLAPSSKSTSGGTAALGCLVKDYFPEPVTVSWNSGALTSGVHTFPAVLQSSGLYSLSSVVTVPSSSLGTQTYICNVNHKPSNTKVDKKVEPKSCDKTHTCPPCPAPEAAGGPSVFLFPPKPKDTLMISRTPEVTCVVVDVSHEDPEVKFNWYVDGVEVHNAKTKPREEQYASTYRVVSVLTVLHQDWLNGKEYKCKVSNKALPAPIEKTISKAKGQPREPQVYTLPPSRCELTKNQVSLSCAVKGFYPSDIAVEWESNGQPENNYKTTPPVLDSDGSFFLVSKLTVDKSRWQQGNVFSCSVMHEALHNHYTQKSLSLSPDYKDDDDK light 2: DIVMTQSPLSLPVTPGEPASISCSASESLLHNNRHTYLHWYQQKPGQAPRLLIYRVSNRFNGVPDRFSGSGSGTDFTLKISRVEAEDVGVYYCGQGTQVPFTFGQGTKLEIKRTVAAPSVFIFPPSDEQLKSGTASVVCLLNNFYPREAKVQWKVDNALQSGNSQESVTEQDSKDSTYSLSSTLTLSKADYEKHKVYACEVTHQGLSSPVTKSFNRGEC",-2.21,1.1,-7.68,4.19,935,944
"GPC3 ERY22-dBBDu_186/L096 (bispecific antibody, human IgG1, kappa, L234A L235A, N297A) heavy 1: DIVMTQSPLSLPVTPGEPASISCRSSQSLVHSNRNTYLHWYQQKPGQAPRLLIYKVSNRFSGVPDRFSGSGSGTDFTLKISRVEAEDVGVYYCSQNTHVPPTFGQGTKLEIKSSASTKGPSVFPLAPSSKSTSGGTAALGCLVKDYFPEPVTVSWNSGALTSGVHTFPAVLQSSGLYSLSSVVTVPSSSLGTQTYICNVNHKPSNTKVDKKVEPKSCDKTHTCPPCPAPEAAGGPSVFLFPPKPKDTLMISRTPEVTCVVVDVSHEDPEVKFNWYVDGVEVHNAKTKPREEQYASTYRVVSVLTVLHQDWLNGKEYKCKVSNKALPAPIEKTISKAKGQPREPQVCTLPPSRDELTKNQVSLWCLVKGFYPSDIAVEWESNGQPENNYKTTPPVLDSDGSFFLYSKLTVDKSRWQQGNVFSCSVMHEALHNHYTQKSLSLSPHHHHHHHH light 1: QVQLVQSGAEVKKPGASVKVSCKASGYTFTDYEMHWIRQPPGQGLEWIGAIDPKTGDTAYSQKFKGRVTLTADKSTSTAYMELSSLTSEDTAVYYCTRFYSYTYWGQGTLVTVSSASVAAPSVFIFPPSDEQLKSGTASVVCLLNNFYPREAKVQWKVDNALQSGNSQESVTEQDSKDSTYSLSSTLTLSKADYEKHKVYACEVTHQGLSSPVTKSFNRGEC heavy 2: QVQLVESGGGLVQPGRSLRLSCAASGFTFSNAWMHWVRQAPGKGLEWVAQIKDRSNQYATYYAPSVKGRFTISRDDSKNSIYLQMNSLKTEDTAVYYCHYVHYAQASTVLPAFGVDAWGQGTTVTVSSASTKGPSVFPLAPSSKSTSGGTAALGCLVKDYFPEPVTVSWNSGALTSGVHTFPAVLQSSGLYSLSSVVTVPSSSLGTQTYICNVNHKPSNTKVDKKVEPKSCDKTHTCPPCPAPEAAGGPSVFLFPPKPKDTLMISRTPEVTCVVVDVSHEDPEVKFNWYVDGVEVHNAKTKPREEQYASTYRVVSVLTVLHQDWLNGKEYKCKVSNKALPAPIEKTISKAKGQPREPQVYTLPPSRCELTKNQVSLSCAVKGFYPSDIAVEWESNGQPENNYKTTPPVLDSDGSFFLVSKLTVDKSRWQQGNVFSCSVMHEALHNHYTQKSLSLSPDYKDDDDK light 2: DIVMTQSPLSLPVTPGEPASISCRTSQELVHINRYIFLHWYQQKPGQAPRLLIYKVYNRFQGVPDRFSGSGSGTDFTLKISRVEAEDVGVYYCAQGTSVPYTFGQGTKLEIKRTVAAPSVFIFPPSDEQLKSGTASVVCLLNNFYPREAKVQWKVDNALQSGNSQESVTEQDSKDSTYSLSSTLTLSKADYEKHKVYACEVTHQGLSSPVTKSFNRGEC",19,24.2,66.1,91.7,1680,1740
